From paper doi:10.1101/2020.04.07.023903

Target: SARS-CoV-2 S glycoprotein, full length, expressed at the surface of ExpiCHO cells (SARS-CoV-2 (isolate BetaCoV/Wuhan-Hu-1/2019)) (UniProt P0DTC2)

Substance | neutralization of SARS-CoV-2-MLV pseudovirus (transduction), IC50 [nM] | neutralization of SARS-CoV-2-MLV pseudovirus, maximal neutralization [%] | neutralization of SARS-CoV-2-MLV pseudovirus, plateau of neutralization [%]
S309 full-length IgG1 (rIgG-LS) (antibody) | 3.5 | 100 | 
S309 Fab fragment | 3.8 |  | 80
